Test results as given in publication PMC4622456 (mAbs, 2015).
Residue numbers refer to the chain shown, from its start. Numbers in names are those of the source.

B1: mouse 6B8 (antibody, V domains shown)
VH: QVQLQQSDAELVKPGTSVKTSCKISGNTFTDQTIHWMKQRPEQGLEWIGYIYPRDDSPKYNENFKGKATLTADKSSSTAYMQLNSLTSEDSAVYFCAIPDRSGYAWFIYWGQGTLVTVSS
VL: DIVMTQSHKFLSTSVGDRVTITCKASRDVAIAVAWYQQKPGQSPKLLLFWASTRHTGVPDRFTGSGSRTDFTLTISNVQSEDLADYFCHQYSSYPFTFGSGTKLEIK
B2: 18E5 (antibody, V domains shown)
VH: EVQLQQSGPELVKPGAAVKMSCKASGYTFTRYLIHWVKQKPGQGLEWIGYINPYNDGTKYNEKFKGKATLTSDKSSSTAYMELSSLTSEDSAVYYCTSNWDLDYWGQGTTLTVSS
VL: DIVMTQSPATLSVTPGDRVSLSCRASQSISDYLYWYQQKSHESPRLLIKFASQSISGIPSRFTGSGSGSDFTLSIDSVEPDDVGVFFCQNGHSFPFTFGGGTKLEIK
B3: 26F7 (antibody, V domains shown)
VH: EVQLQQSGPELVKPGASVKISCKASGYTFTDYYMNWVRQSHGESLEWIGDFNHNNDVITYNPKFKGKVTLTVEKSSTTAYMELRSLSSEDSAVYYCARGLRGYYAMDYWGQGTSVTVSS
VL: DIVLTQSPASLAVSLGQRATISCRASKSVRFSDYFYMHWYQQKPGQPPKLLIYLASNLESGVPARFSGSGSGTDFTLNIHPVEEEDAATYYCQNSRELPYTFGGGTKLEIK
B4: 15C11 (antibody, V domains shown)
VH: EVQLQQSGPVLVKPGASVKMSCKASGYTFTDYYMNWVKQSHGKSLEWIGVIIPYNGGTSYNQKFKGKATLTVDKSSSTAYMELNSLTSEDSAVYYCARDGHRWYFDVWGTGTTVTVSS
VL: DVVMTQTPLSLPVSLGDQASISCRSSQSLVHSNGNTYLHWYLQKPGQSPKLLIYKVSNRFSGVPDRFSGSGSGTDFTLKINRVEAEDLGVYFCSQSTHVPYTFGGGTQLEIK
B5: 34G3 (antibody, V domains shown)
VH: EFQLQQSGPELVKPGASVKISCKASGYSFTDYNMNWVKQSKGKSLEWIGVIIPNYGFTSYNQNFKGKATLTVDQSSSTAHMQLNSVTSEDSAVYYCVRDGGILLWYLDVWGTGTTVTVSS
VL: B4 VL with N81S, Q108K, K112N
B6: BI 655067 (VH 05-Vk65 IgG1) (antibody, V domains shown)
VH: QVQLVQSGAEVKKPGSSVKVSCKASGFTFTDQTIHWVRQAPGQGLEWMGYIYPRDDSPKYNENFKGKVTLTADKSTSTAYMELSSLRSEDTAVYYCAIPDRSGYAWFIYWGQGTLVTVSS
VL: DIQMTQSPSSLSASVGDRVTITCKASRDVAIAVAWYQQKPGKVPKLLLFWASTRHTGVPDRFSGSGSGTDFTLTISSLQPEDLADYYCHQYSSYPFTFGQGTKLEIK
B7: BI 655066 (VH 02-Vk66 IgG1) (antibody, V domains shown)
VH: B6 VH with F27Y, V37M, M48I, L70I
VL: B6 VL with L48I, F49Y, D60S, G68R, L83V, Y87F, Q100S
B8: BI 655068 (VH 02-Vk65 IgG1) (antibody, V domains shown)
VH: B6 VH with F27Y, V37M, M48I, L70I
VL: B6 VL
B9: BI 655069 (VH 05-Vk66 IgG1) (antibody, V domains shown)
VH: B6 VH
VL: B6 VL with L48I, F49Y, D60S, G68R, L83V, Y87F, Q100S
B10: recombinant chimeric 6B8 (antibody, V domains shown)
VH: B1 VH
VL: B1 VL
B11: BI 655066, NS0 derived (human IgG1 Fc L234A, L235A) (antibody, V domains shown)
VH: B6 VH with F27Y, V37M, M48I, L70I
VL: B6 VL with L48I, F49Y, D60S, G68R, L83V, Y87F, Q100S
B12: BI 655066, CHO derived (antibody, V domains shown)
VH: B6 VH with F27Y, V37M, M48I, L70I
VL: B6 VL with L48I, F49Y, D60S, G68R, L83V, Y87F, Q100S
B13: VH 65-Vk65 IgG1 (antibody, V domains shown)
VH: B6 VH with F27G, K67R, Y95F, I98R
VL: B6 VL
B14: VH 36-Vk65 IgG1 (antibody, V domains shown)
VH: B6 VH with V20T, F27G, A40R, K67R, L70I
VL: B6 VL
B15: VH 02-Vk78 IgG1 (antibody, V domains shown)
VH: B6 VH with F27Y, V37M, M48I, L70I
VL: B6 VL with G68R, Q100S
B16: VH 65-Vk66 IgG1 (antibody, V domains shown)
VH: B6 VH with F27G, K67R, Y95F, I98R
VL: B6 VL with L48I, F49Y, D60S, G68R, L83V, Y87F, Q100S
B17: VH 36-Vk78 IgG1 (antibody, V domains shown)
VH: B6 VH with V20T, F27G, A40R, K67R, L70I
VL: B6 VL with G68R, Q100S
B18: VH 65-Vk78 IgG1 (antibody, V domains shown)
VH: B6 VH with F27G, K67R, Y95F, I98R
VL: B6 VL with G68R, Q100S
B19: VH 36-Vk66 IgG1 (antibody, V domains shown)
VH: B6 VH with V20T, F27G, A40R, K67R, L70I
VL: B6 VL with L48I, F49Y, D60S, G68R, L83V, Y87F, Q100S

Target: T1, recombinant human IL23 (human, UniProt Q9NPF7;P29460)
Test: cell-based or functional assay

T1 sequence (Q9NPF7 20-189, chain 1 of 2): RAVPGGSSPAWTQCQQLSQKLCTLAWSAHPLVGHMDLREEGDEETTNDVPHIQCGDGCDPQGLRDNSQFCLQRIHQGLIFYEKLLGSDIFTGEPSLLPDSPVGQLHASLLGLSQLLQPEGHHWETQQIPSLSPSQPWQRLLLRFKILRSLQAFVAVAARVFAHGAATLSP
T1 sequence (P29460 23-328, chain 2 of 2): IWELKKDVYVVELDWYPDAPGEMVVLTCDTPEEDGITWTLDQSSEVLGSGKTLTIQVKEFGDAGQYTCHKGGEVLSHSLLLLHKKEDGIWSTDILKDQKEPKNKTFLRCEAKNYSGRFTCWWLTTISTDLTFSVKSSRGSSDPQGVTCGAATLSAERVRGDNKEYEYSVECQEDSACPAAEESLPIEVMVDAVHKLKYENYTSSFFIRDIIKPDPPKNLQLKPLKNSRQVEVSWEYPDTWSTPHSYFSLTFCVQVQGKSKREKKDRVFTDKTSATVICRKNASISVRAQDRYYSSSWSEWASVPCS

Binder | Inhibition of IL23 induced IL17 production in mouse splenocytes (IC50, pM) [pM]
B1 | 8
B2 | < 13
B3 | 9
B4 | 197
B5 | 8

Target: recombinant mouse IL23 (Mus musculus, UniProt Q9EQ14;P43432)
Test: SPR

Sequence of recombinant mouse IL23 (Q9EQ14 22-196, chain 1 of 2): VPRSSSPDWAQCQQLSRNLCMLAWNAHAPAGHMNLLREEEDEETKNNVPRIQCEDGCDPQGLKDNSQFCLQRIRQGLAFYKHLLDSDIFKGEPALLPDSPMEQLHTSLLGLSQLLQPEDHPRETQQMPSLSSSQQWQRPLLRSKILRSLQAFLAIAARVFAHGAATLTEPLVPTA
Sequence of recombinant mouse IL23 (P43432 23-335, chain 2 of 2): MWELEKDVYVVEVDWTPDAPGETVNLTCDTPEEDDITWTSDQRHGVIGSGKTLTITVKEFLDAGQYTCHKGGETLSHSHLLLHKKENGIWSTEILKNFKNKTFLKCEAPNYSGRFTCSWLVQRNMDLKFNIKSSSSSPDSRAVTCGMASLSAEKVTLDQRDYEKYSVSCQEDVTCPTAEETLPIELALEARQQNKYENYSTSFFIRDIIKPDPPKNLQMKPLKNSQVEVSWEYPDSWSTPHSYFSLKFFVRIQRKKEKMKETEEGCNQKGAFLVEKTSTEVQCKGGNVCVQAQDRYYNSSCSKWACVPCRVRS

Binder | binding result
B6 | no binding (tested: 1.2 μM)
B7 | no binding (tested: 1.2 μM)
B8 | no binding (tested: 1.2 μM)
B9 | no binding (tested: 1.2 μM)

Target: recombinant rat IL23 (Rattus norvegicus, UniProt Q91Z84;Q9R278)
Test: SPR

Binder | binding result
B6 | no binding (tested: 1.2 μM)
B7 | no binding (tested: 1.2 μM)
B8 | no binding (tested: 1.2 μM)
B9 | no binding (tested: 1.2 μM)

Target: T1, recombinant human IL23
Test: SPR

Binder | Kd [nM]
B1 | 0.025
B10 | < 0.01

Target: T1, recombinant human IL23
Test: BLI

Binder | Kd [nM]
B2 | < 0.01
B3 | 0.028
B4 | 0.026
B5 | 0.033

Target: T1, recombinant human IL23
Test: BLI
Remark: another data set of the same source

Binder | kon(serum)/kon(buffer)
B6 | 1.2
B7 | 1.2
B8 | 1
B9 | 1.2

Target: T1, recombinant human IL23
Test: SPR
Remark: another data set of the same source

Binder | Kd [nM]
B11 | < 0.01
B12 | < 0.01

Target: T1, recombinant human IL23
Test: SPR
Remark: another data set of the same source

Binder | Kd [nM]
B6 | < 0.01
B13 | 0.107
B14 | 0.096
B15 | < 0.01
B7 | < 0.01
B16 | < 0.01
B8 | 0.015
B17 | < 0.01
B18 | < 0.01
B19 | < 0.01
B9 | 0.036

Target: recombinant cynomolgus IL23 (Macaca fascicularis, UniProt H6WS56;H6WS55)
Test: SPR

Binder | Kd [nM]
B6 | < 0.01
B7 | < 0.01
B8 | < 0.01
B9 | 0.016
